Results as given in publication PMC2795026.
Read-outs that look alike come from different tables or passages of the source.

What was measured:
[1] = molecular target: T1, MBP-Brh2NT-His (Ustilago maydis, UniProt Q8NJ74 1-551); experiment: EMSA
T1 sequence: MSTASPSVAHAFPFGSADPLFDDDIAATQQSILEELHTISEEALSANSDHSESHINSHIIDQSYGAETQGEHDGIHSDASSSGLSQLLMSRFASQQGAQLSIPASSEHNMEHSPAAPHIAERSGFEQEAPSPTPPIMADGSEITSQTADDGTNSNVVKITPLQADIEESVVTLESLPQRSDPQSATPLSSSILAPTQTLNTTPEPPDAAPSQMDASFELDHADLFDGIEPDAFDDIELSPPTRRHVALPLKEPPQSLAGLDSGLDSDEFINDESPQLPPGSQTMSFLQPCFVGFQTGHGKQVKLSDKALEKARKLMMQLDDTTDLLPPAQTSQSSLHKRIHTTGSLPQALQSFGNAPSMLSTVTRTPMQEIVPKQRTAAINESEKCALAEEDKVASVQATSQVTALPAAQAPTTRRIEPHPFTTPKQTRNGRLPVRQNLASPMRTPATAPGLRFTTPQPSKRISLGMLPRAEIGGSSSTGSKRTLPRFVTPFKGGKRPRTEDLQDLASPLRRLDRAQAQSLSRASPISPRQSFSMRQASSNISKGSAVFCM

[2] = molecular target: T2, MBP-Brh2 (Ustilago maydis, UniProt Q8NJ74 1-1075); experiment: pull-down
T2 sequence: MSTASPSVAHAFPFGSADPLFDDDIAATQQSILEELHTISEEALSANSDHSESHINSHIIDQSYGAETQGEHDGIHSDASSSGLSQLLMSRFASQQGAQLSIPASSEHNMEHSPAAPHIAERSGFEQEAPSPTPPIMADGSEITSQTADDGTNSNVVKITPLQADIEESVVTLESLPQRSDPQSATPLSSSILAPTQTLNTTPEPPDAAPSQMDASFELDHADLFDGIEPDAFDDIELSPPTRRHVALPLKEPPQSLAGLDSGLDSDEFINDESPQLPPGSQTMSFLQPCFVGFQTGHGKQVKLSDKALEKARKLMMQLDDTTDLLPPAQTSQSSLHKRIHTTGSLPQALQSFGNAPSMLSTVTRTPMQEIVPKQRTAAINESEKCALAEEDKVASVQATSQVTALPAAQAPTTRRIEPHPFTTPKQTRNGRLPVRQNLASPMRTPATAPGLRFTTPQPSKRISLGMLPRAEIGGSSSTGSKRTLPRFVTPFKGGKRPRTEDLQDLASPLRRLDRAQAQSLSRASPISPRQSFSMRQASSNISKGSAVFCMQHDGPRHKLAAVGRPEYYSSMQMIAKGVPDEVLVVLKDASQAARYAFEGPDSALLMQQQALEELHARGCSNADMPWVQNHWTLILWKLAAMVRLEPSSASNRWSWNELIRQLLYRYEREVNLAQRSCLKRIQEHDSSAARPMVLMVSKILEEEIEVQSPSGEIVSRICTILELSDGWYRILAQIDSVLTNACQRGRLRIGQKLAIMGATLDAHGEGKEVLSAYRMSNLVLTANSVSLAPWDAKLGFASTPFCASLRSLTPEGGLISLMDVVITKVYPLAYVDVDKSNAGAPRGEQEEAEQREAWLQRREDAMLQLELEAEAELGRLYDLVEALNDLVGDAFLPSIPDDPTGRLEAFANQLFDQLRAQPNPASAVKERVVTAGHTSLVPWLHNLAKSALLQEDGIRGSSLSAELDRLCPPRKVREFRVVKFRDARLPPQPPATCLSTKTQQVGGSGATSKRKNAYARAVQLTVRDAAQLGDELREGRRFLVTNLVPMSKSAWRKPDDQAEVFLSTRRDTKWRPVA

[3] = molecular target: T3, Brh2 apoprotein (stripped of Dss1) (Ustilago maydis, UniProt Q8NJ74 1-1075); experiment: EMSA
T3 sequence: T2 sequence

[4] = molecular target: T2, MBP-Brh2; experiment: pull-down; remark: listed apart in the source

B1: ss60mer (ssDNA)
DNA: GCTGCGCAAGGATAGGTCGAATTTTCTCATTTTCCGCCAGCAGTCCACTTCGATTTAATT
[1]
  binding result: binds
[2]
  binding result: binds
[3]
  binding result: binds

B2: 3'-biotin ss60mer (ssDNA)
DNA: B1 DNA
[4]
  binding result: binds
